# Measurements: patent US20220204580A1 (AstraZeneca / MedImmune, published 2022)
# Numbered stars: 1 amine (or outer) side, 2 acyl side, 3 side chain; on linkers, the order of the positions; unused ones are H or OH. Bridge positions count the residues as written; N and C are the ends. Square brackets hold non-standard residues; d marks the D form. Side chains are listed from the residue outwards. Ends that are not written are not given here. * marks the point of attachment. C18 diacid = O=C(O)CCCCCCCCCCCCCCCCC(=O)*; γGlu = O=C(O)[C@H](CCC(=O)[*:2])N[*:1]; αMeF = C[C@](N)(Cc1ccccc1)C(=O)O; Aib = CC(C)(N)C(=O)O
# B1: Peptide 140 (SEQ ID NO: 140) (peptide)
# peptide: K([γGlu-C18 diacid])KCNTATCATQRLANFL[Aib]HSSNNFGPILPPTEVGSNTY-NH2
# modifications: disulfide 3-8; N-terminus assumed
# SMILES: CC[C@H](C)[C@H](NC(=O)[C@@H]1CCCN1C(=O)CNC(=O)[C@H](Cc1ccccc1)NC(=O)[C@H](CC(N)=O)NC(=O)[C@H](CC(N)=O)NC(=O)[C@H](CO)NC(=O)[C@H](CO)NC(=O)[C@H](Cc1c[nH]cn1)NC(=O)C(C)(C)NC(=O)[C@H](CC(C)C)NC(=O)[C@H](Cc1ccccc1)NC(=O)[C@H](CC(N)=O)NC(=O)[C@H](C)NC(=O)[C@H](CC(C)C)NC(=O)[C@H](CCCNC(=N)N)NC(=O)[C@H](CCC(N)=O)NC(=O)[C@@H](NC(=O)[C@H](C)NC(=O)[C@@H]1CSSC[C@H](NC(=O)[C@H](CCCCN)NC(=O)[C@@H](N)CCCCNC(=O)CC[C@H](NC(=O)CCCCCCCCCCCCCCCCC(=O)O)C(=O)O)C(=O)N[C@@H](CC(N)=O)C(=O)N[C@@H]([C@@H](C)O)C(=O)N[C@@H](C)C(=O)N[C@@H]([C@@H](C)O)C(=O)N1)[C@@H](C)O)C(=O)N[C@@H](CC(C)C)C(=O)N1CCC[C@H]1C(=O)N1CCC[C@H]1C(=O)N[C@H](C(=O)N[C@@H](CCC(=O)O)C(=O)N[C@H](C(=O)NCC(=O)N[C@@H](CO)C(=O)N[C@@H](CC(N)=O)C(=O)N[C@H](C(=O)N[C@@H](Cc1ccc(O)cc1)C(N)=O)[C@@H](C)O)C(C)C)[C@@H](C)O
# B2: Peptide 129 (SEQ ID NO: 129) (peptide)
# peptide: K([γGlu-C18 diacid])KCNTATCATQRLANFL[Aib]HSSNNFGPILPPTNVGSNTY-NH2
# modifications: disulfide 3-8; N-terminus assumed
# SMILES: CC[C@H](C)[C@H](NC(=O)[C@@H]1CCCN1C(=O)CNC(=O)[C@H](Cc1ccccc1)NC(=O)[C@H](CC(N)=O)NC(=O)[C@H](CC(N)=O)NC(=O)[C@H](CO)NC(=O)[C@H](CO)NC(=O)[C@H](Cc1c[nH]cn1)NC(=O)C(C)(C)NC(=O)[C@H](CC(C)C)NC(=O)[C@H](Cc1ccccc1)NC(=O)[C@H](CC(N)=O)NC(=O)[C@H](C)NC(=O)[C@H](CC(C)C)NC(=O)[C@H](CCCNC(=N)N)NC(=O)[C@H](CCC(N)=O)NC(=O)[C@@H](NC(=O)[C@H](C)NC(=O)[C@@H]1CSSC[C@H](NC(=O)[C@H](CCCCN)NC(=O)[C@@H](N)CCCCNC(=O)CC[C@H](NC(=O)CCCCCCCCCCCCCCCCC(=O)O)C(=O)O)C(=O)N[C@@H](CC(N)=O)C(=O)N[C@@H]([C@@H](C)O)C(=O)N[C@@H](C)C(=O)N[C@@H]([C@@H](C)O)C(=O)N1)[C@@H](C)O)C(=O)N[C@@H](CC(C)C)C(=O)N1CCC[C@H]1C(=O)N1CCC[C@H]1C(=O)N[C@H](C(=O)N[C@@H](CC(N)=O)C(=O)N[C@H](C(=O)NCC(=O)N[C@@H](CO)C(=O)N[C@@H](CC(N)=O)C(=O)N[C@H](C(=O)N[C@@H](Cc1ccc(O)cc1)C(N)=O)[C@@H](C)O)C(C)C)[C@@H](C)O
# B3: Peptide 149 (SEQ ID NO: 149) (peptide)
# peptide: K([γGlu-C18 diacid])CNTATCATQRLANFL[Aib]HSSNNFGPILPPTNVGSNTY-NH2
# modifications: disulfide 2-7; N-terminus assumed
# SMILES: CC[C@H](C)[C@H](NC(=O)[C@@H]1CCCN1C(=O)CNC(=O)[C@H](Cc1ccccc1)NC(=O)[C@H](CC(N)=O)NC(=O)[C@H](CC(N)=O)NC(=O)[C@H](CO)NC(=O)[C@H](CO)NC(=O)[C@H](Cc1c[nH]cn1)NC(=O)C(C)(C)NC(=O)[C@H](CC(C)C)NC(=O)[C@H](Cc1ccccc1)NC(=O)[C@H](CC(N)=O)NC(=O)[C@H](C)NC(=O)[C@H](CC(C)C)NC(=O)[C@H](CCCNC(=N)N)NC(=O)[C@H](CCC(N)=O)NC(=O)[C@@H](NC(=O)[C@H](C)NC(=O)[C@@H]1CSSC[C@H](NC(=O)[C@@H](N)CCCCNC(=O)CC[C@H](NC(=O)CCCCCCCCCCCCCCCCC(=O)O)C(=O)O)C(=O)N[C@@H](CC(N)=O)C(=O)N[C@@H]([C@@H](C)O)C(=O)N[C@@H](C)C(=O)N[C@@H]([C@@H](C)O)C(=O)N1)[C@@H](C)O)C(=O)N[C@@H](CC(C)C)C(=O)N1CCC[C@H]1C(=O)N1CCC[C@H]1C(=O)N[C@H](C(=O)N[C@@H](CC(N)=O)C(=O)N[C@H](C(=O)NCC(=O)N[C@@H](CO)C(=O)N[C@@H](CC(N)=O)C(=O)N[C@H](C(=O)N[C@@H](Cc1ccc(O)cc1)C(N)=O)[C@@H](C)O)C(C)C)[C@@H](C)O
# B4: Peptide 15 (SEQ ID NO: 15) (peptide)
# peptide: K([γGlu-C18 diacid])KCNTATCATQRLANFLRHSSNN[αMeF]GPILPPTEVGSNTY-NH2
# modifications: disulfide 3-8; N-terminus assumed
# SMILES: CC[C@H](C)[C@H](NC(=O)[C@@H]1CCCN1C(=O)CNC(=O)[C@](C)(Cc1ccccc1)NC(=O)[C@H](CC(N)=O)NC(=O)[C@H](CC(N)=O)NC(=O)[C@H](CO)NC(=O)[C@H](CO)NC(=O)[C@H](Cc1c[nH]cn1)NC(=O)[C@H](CCCNC(=N)N)NC(=O)[C@H](CC(C)C)NC(=O)[C@H](Cc1ccccc1)NC(=O)[C@H](CC(N)=O)NC(=O)[C@H](C)NC(=O)[C@H](CC(C)C)NC(=O)[C@H](CCCNC(=N)N)NC(=O)[C@H](CCC(N)=O)NC(=O)[C@@H](NC(=O)[C@H](C)NC(=O)[C@@H]1CSSC[C@H](NC(=O)[C@H](CCCCN)NC(=O)[C@@H](N)CCCCNC(=O)CC[C@H](NC(=O)CCCCCCCCCCCCCCCCC(=O)O)C(=O)O)C(=O)N[C@@H](CC(N)=O)C(=O)N[C@@H]([C@@H](C)O)C(=O)N[C@@H](C)C(=O)N[C@@H]([C@@H](C)O)C(=O)N1)[C@@H](C)O)C(=O)N[C@@H](CC(C)C)C(=O)N1CCC[C@H]1C(=O)N1CCC[C@H]1C(=O)N[C@H](C(=O)N[C@@H](CCC(=O)O)C(=O)N[C@H](C(=O)NCC(=O)N[C@@H](CO)C(=O)N[C@@H](CC(N)=O)C(=O)N[C@H](C(=O)N[C@@H](Cc1ccc(O)cc1)C(N)=O)[C@@H](C)O)C(C)C)[C@@H](C)O
# Columns and labels:
# Assay in all cases: cell-based or functional assay
# [1] = biological target: T1, human amylin receptor (calcitonin receptor co-expressed with receptor activity modifying protein, RAMP3) (human, UniProt P30988 25-474; O60896 24-148)
# T1 sequence (looked up) 1: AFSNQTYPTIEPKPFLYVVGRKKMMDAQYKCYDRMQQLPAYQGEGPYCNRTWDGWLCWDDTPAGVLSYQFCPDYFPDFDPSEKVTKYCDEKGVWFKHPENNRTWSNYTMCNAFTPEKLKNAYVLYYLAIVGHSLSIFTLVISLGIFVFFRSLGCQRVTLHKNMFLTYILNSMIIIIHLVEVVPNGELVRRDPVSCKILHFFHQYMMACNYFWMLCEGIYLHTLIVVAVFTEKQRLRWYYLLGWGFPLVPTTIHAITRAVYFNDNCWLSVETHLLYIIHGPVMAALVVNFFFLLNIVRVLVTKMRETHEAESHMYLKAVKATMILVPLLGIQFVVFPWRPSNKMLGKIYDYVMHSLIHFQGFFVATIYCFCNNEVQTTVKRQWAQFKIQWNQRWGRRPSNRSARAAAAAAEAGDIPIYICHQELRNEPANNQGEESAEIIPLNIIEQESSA
# T1 sequence (looked up) 2: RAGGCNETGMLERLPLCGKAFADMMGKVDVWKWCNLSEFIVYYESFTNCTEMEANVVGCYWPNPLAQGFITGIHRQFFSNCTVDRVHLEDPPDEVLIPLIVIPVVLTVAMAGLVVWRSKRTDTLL
# [2] = biological target: T2, human calcitonin receptor (human, UniProt P30988 25-474)
# T2 sequence (looked up): T1 sequence (looked up) 1
# [3] = biological target: T3, rat amylin receptor (calcitonin receptor co-expressed with receptor activity modifying protein, RAMP3) (rat, UniProt P32214 25-516; Q9JJ73 23-147)
# T3 sequence (looked up) 1: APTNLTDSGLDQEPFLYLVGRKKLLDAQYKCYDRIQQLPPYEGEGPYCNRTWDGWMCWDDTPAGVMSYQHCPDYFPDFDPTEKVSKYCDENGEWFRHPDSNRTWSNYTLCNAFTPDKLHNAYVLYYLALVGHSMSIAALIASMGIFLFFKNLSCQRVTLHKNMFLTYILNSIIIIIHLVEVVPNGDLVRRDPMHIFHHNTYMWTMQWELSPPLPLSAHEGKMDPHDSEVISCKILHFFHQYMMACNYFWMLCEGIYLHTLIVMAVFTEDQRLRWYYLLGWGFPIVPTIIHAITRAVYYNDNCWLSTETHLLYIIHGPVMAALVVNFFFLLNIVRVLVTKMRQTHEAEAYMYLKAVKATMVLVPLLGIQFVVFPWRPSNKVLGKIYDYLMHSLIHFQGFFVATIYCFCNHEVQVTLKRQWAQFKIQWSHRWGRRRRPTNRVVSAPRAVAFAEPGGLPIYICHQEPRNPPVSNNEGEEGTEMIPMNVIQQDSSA
# T3 sequence (looked up) 2: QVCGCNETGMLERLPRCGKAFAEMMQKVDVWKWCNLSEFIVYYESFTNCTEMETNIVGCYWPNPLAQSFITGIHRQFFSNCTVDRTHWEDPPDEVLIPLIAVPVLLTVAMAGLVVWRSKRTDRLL
# rat calcitonin receptor = biological target: T4, rat calcitonin receptor (rat, UniProt P32214 25-516)
# T4 sequence (looked up): T3 sequence (looked up) 1
Binder,EC50 (cAMP production) [1],Ratio (EC50 hCTR / EC50 hAMYR3) [1],EC50 (cAMP production) [2],EC50 (cAMP production) [3],EC50 (cAMP production) (rat calcitonin receptor)
{C18 diacid}-[γGlu]KCNTATCATQRLANFLVHSSNNFGPILPPTNVGSNTY-NH2 (disulfide 3-8) [Peptide 3 (SEQ ID NO: 3)],0.246 nM,5,1.35 nM,0.0029 nM,0.186 nM
K([γGlu-γGlu-C18 diacid])CNTATCATQRLANFLRHSSNN[αMeF]GPILPPTEVGSNTY-NH2 (disulfide 2-7) [Peptide 18 (SEQ ID NO: 18)],0.319 nM,15,4.69 nM,0.0165 nM,3.09 nM
B1,0.656 nM,9.2,6.05 nM,0.0195 nM,1.22 nM
B2,0.553 nM,10.4,5.75 nM,0.0112 nM,2.87 nM
B3,0.13 nM,9.2,1.2 nM,0.0056 nM,0.522 nM
B4,0.522 nM,10,5.46 nM,0.0103 nM,1.82 nM
